B1: HESX1 (parent)
chain: HVPNPPSGISFPSVVDHPMPEERA

Variants of: B1
Test: protein stability index of a GFP-peptide fusion (GPS, HEK-293T) (PSI 1-6); higher = more stable
Details: c terminus: a fixed tail appended
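Note: lentivirally expressed fusions sorted by FACS into six bins by GFP to DsRed ratio, PSI derived from sequencing read proportions per bin multiplied by bin number.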

Protein stability index: each site, then its substitutions
V2: Y 5.18; A 4.97; E 5.7; K 5; M 5.26; R 4.84; Q 5.26; T 4.92; S 5.06; C 4.32
R23: K 2.77; T 2.6; P 2.76; C 2.56; Y 2.34; F 2.11; W 2.37; I 2.58; L 2.1; V 2.49; H 2.99; S 2.36; G 3.19; E 2.76
P3: R 2.27; T 3.9; A 3.79; D 5.34; W 2.94; G 4.01; I 3.96; S 3.78; H 4.13; N 4; K 2.99; F 3.85; Q 4.09; E 5.25
P5: N 3.03; R 3.28; W 2.39; Y 2.03; F 2.38; D 3.96; E 3.81; A 2.71; H 2.6; L 2.53; G 1.93; Q 3.5; K 2.69
N4: A 1.65; Q 3.45; G 1.66; L 4.27; S 2.24; R 4.18; F 3.47; K 3.76; M 3.04; V 2.71; H 3.09; Y 3.06; T 2.22; D 3.88
D16: G 2.18; A 2.72; N 2; M 2.19; E 2.73; F 1.9; K 2.21; V 2.35; H 2.81; Q 2.51; I 1.92; W 1.57; Y 2.57
A24: C 2.09; S 2.5; W 1.91; V 2.98; G 2.33; P 2.98; N 2.74; I 2.36; Y 2.13; F 2.3; H 2.65; M 2.77
V14: T 3.49; K 3.45; S 3.52; F 3.57; P 3.83; I 3.11; Q 4.01; L 3.9; R 3.75; D 4.63; H 3.86; C 2.25; E 4.36; A 3.13; G 4.21
I9: C 2.66; W 2.37; K 3.53; H 3.24; L 2.14; V 2.94; P 2.23; T 3.8; G 3.59; N 3.31; M 2.5; R 2.67; S 3.33; A 3.04; D 4.1; F 3.22
M19: C 2.37; A 2.99; Y 2.27; S 3.18; L 2.39; N 2.97; W 2.29; V 2.44; T 2.59; G 2.44; I 2.59
E22: F 1.9; H 2.29; A 2.72; W 2.37; D 2.76; I 2.75; V 2.16; R 2.26; G 2.08; K 1.83; S 2.3; P 2.17; M 2.15
S10: A 2.79; Y 2.18; P 2.29; N 3.5; F 2.61; M 2.56; R 2.03; L 2.38; H 2.81; D 3.77; W 1.97; V 2.58; G 2.25; K 2.38
P12: K 3.83; G 3.82; M 2.72; D 4.85; E 4.57; Q 3.92; S 4.01; T 3.78

— the supplement of paper PMC10567573
